This passage reports EC50 results from patent US20200157212A1 (Pfizer, published 2020).

The target of the assay is T1, Rat ROBO2 on cells (rat, UniProt Q7TPD3 22-1469 (mouse entry)).
T1 construct: overexpressed on HEK293 cells in flow cytometry; endogenous on rat SVZ neuronal explants in the SVZa assay
T1 chain: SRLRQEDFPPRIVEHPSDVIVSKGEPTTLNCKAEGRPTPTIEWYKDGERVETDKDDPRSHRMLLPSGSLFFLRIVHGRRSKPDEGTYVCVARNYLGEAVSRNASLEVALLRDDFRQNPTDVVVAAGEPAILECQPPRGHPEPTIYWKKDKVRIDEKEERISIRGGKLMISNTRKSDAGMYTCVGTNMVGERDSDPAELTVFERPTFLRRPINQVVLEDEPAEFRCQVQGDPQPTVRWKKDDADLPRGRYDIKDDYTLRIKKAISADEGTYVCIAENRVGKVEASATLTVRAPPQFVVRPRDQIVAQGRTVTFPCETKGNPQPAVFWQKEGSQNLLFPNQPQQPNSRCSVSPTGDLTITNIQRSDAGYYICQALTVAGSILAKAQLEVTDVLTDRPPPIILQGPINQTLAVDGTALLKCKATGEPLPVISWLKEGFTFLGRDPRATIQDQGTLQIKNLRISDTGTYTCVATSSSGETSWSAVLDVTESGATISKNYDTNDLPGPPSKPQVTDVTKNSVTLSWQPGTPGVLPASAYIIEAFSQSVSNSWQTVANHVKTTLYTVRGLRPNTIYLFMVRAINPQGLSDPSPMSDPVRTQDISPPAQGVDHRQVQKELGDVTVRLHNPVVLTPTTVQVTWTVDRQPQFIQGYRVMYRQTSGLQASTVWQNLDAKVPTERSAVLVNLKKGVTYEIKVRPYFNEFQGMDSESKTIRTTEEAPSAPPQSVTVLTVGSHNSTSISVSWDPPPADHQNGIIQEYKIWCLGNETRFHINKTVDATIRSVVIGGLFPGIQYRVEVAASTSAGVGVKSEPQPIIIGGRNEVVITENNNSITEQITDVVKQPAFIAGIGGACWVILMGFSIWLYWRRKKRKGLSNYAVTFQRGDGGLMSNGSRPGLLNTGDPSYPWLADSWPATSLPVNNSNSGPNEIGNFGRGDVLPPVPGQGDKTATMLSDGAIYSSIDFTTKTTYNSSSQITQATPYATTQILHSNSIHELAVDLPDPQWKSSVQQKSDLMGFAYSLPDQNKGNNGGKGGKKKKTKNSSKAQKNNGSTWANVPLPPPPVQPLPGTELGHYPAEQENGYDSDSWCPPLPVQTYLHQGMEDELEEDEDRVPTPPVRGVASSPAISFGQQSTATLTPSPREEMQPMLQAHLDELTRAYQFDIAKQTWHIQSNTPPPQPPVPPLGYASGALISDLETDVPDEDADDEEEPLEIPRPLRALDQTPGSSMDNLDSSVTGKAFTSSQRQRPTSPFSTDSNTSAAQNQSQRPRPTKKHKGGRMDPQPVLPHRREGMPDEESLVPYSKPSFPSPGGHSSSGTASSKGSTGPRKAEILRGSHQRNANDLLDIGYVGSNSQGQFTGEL
Put plainly: flow cytometry, HEK293 cells. How it is done:
Using flow cytometry, improvement in the binding EC₅₀ to human ROBO2 relative to the parental 93H2 was evaluated. Starting at 6.7 nM, 11-point, 3-fold dilution series were made for each antibody and used to stain HEK293 overexpressing human ROBO2 as described above for the ROBO2 fold selectivity (Example 2). […] In addition to measuring improved binding to human ROBO2, it was important to ensure that high affinity binding to both cynomolgus monkey ROBO2 and rat ROBO2 was maintained. Using HEK293 cells overexpressing either cynomolgus monkey ROBO2 or rat ROBO2, the relative dose-dependent binding of 93H2, Abcs25 and Abcs35 was evaluated as described above. High affinity binding to both cynomolgus monkey and rat ROBO2 was maintained in Abcs25 and Abcs35 (Table 4). […] Briefly, Abcs35 was immobilized to 300 resonance units (RU) on a CM5 chip. Association of ROBO2 Ig1-Ig2-His (ROBO2) was measured over 5 minutes and dissociation was followed for a period of 10 minutes.
The binding profile of Abcs35-J compared to Abcs35 was determined for human ROBO2, orthologs from cynomolgus monkey and rat, human ROBO1 and specificity for the RSK epitope from ROBO2 but not KSR from ROBO1. Binding was assessed by flow cytometry as described in Examples 2 (homolog specificity), Example 3 (ortholog reactivity) and Example 5 (RSK vs KSR epitope specificity). […] Binding of the antibodies was detected using a secondary fluorochrome conjugated anti-human IgG F(ab′)₂ antibody and samples analyzed on a Fortessa cytometer (BD Biosciences).
In general terms: In flow cytometry, cells or beads pass a laser one at a time.

Residue numbers refer to the chain shown, from its start.

B1: Abcs35 (antibody, human IgG1, kappa)
heavy: EVQLVQSGAEVKKPGASVKVSCKASGYTFTGYYMHWVRQAPGQGLEWMGWINPKNGDTEFPQKFQGRVTMTRDTSITTAYMDLSRLRSDDTAVYYCARESGDDAFDIWGQGTMVTVSSASTKGPSVFPLAPSSKSTSGGTAALGCLVKDYFPEPVTVSWNSGALTSGVHTFPAVLQSSGLYSLSSVVTVPSSSLGTQTYICNVNHKPSNTKVDKKVEPKSCDKTHTCPPCPAPEAAGAPSVFLFPPKPKDTLMISRTPEVTCVVVDVSHEDPEVKFNWYVDGVEVHNAKTKPREEQYNSTYRVVSVLTVLHQDWLNGKEYKCKVSNKALPAPIEKTISKAKGQPREPQVYTLPPSREEMTKNQVSLTCLVKGFYPSDIAVEWESNGQPENNYKTTPPVLDSDGSFFLYSKLTVDKSRWQQGNVFSCSVMHEALHNHYTQKSLSLSPGK
light: DIVMTQSPSSLSASVGDRVTITCRASQSISSYLNWYQQKPGKAPKLLIYAASSLQSGVPSRFSGSGSGTDFTLTISSLQPEDFATYYCQQSVGLFFGGGTKVEIKRTVAAPSVFIFPPSDEQLKSGTASVVCLLNNFYPREAKVQWKVDNALQSGNSQESVTEQDSKDSTYSLSSTLTLSKADYEKHKVYACEVTHQGLSSPVTKSFNRGEC
notes: fully human IgG1; VH of Ab96 with VL of Ab123
B1: the EC50 (in general, the concentration needed to bring the measured effect to its halfway point) is 0.026 nM.

B2: Abcs35-J (antibody, human IgG1, kappa)
heavy: B1 heavy with D82E
light: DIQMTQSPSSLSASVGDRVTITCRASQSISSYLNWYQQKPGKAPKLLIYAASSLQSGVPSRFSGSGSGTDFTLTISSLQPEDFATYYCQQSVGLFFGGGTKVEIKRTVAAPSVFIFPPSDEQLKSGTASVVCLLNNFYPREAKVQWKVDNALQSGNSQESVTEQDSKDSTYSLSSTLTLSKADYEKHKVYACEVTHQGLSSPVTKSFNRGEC
notes: germlined variant of Abcs35; also called ABCS-J
With B2, the EC50 was 0.026 nM.
